From patent US9644034B2, “Anti-RSPO2 antibodies and uses thereof” (OncoMed Pharmaceuticals, Inc., priority 2011, dated 2017)

Columns and labels:
[1] = molecular target: T1, human RSPO2 (Homo sapiens, UniProt Q6UXX9); assay: FACS screening of hybridoma supernatants on HEK-293 cells expressing FLAG-RSPO2furin-CD4TM-GFP; assay type: binding
T1 construct: followed by the furin-like domains of RSPO2 (aa 31-146); expressed in transfected cells; host or cells: HEK-293
Text: Antibodies were generated against recombinant human RSPO2 protein amino acids 22-205 (R&D Systems, Minneapolis, Minn.). Mice (n=3) were immunized with RSPO2 protein using standard techniques. Sera from individual mice were screened against RSPO2 approximately 70 days after initial immunization using FACS analysis. The animal with the highest antibody titer was selected for final antigen boost after which spleen cells were isolated for hybridoma production. SP2/0 cells were used as fusion partners for the mouse spleen cells. Hybridoma cells were plated at 1 cell per well in 96 well plates, and the supernatants were screened against human RSPO2 by FACS analysis.
As described in Example 5, for FACS screening of anti-RSPO2 antibodies a chimeric fusion protein enabling cell surface expression of the N-terminal furin-like domains of human RSPO2 was constructed. Similar to what is depicted in FIG. 5A for RSPO1, the RSPO2 fusion protein contains a N-terminal FLAG tag, followed by the furin-like domains of RSPO2 (aa 31-146) and fused to the transmembrane and intracellular domain of human CD4 and a C-terminal green fluorescent protein tag (FLAG-RSPO2furin-CD4TM-GFP).
HEK-293 cells were transfected with FLAG-RSPO2furin-CD4TM-GFP. […] The cells were analyzed on a FACSCalibur instrument (BD Biosciences, San Jose, Calif.) and the data was processed using FlowJo software.

[2] = tested on: PN31 pancreatic tumor cells; assay: PN31 pancreatic tumor xenograft growth in NOD/SCID mice; assay type: in vivo; conditions: antibodies 15 mg/kg once a week, intraperitoneal
Description: Dissociated PN31 pancreatic tumor cells (1×10^5cells) were injected subcutaneously into the flanks of 6-8 week old NOD/SCID mice. Tumors were allowed to grow for 61 days until they reached an average volume of 120 mm^3. The mice were randomized (n=10 per group) and treated with anti-RSPO1 antibody 89M5, anti-RSPO2 antibody 130M23, gemcitabine, a combination of 89M5 and gemcitabine, a combination of 130M23 and gemcitabine, or control antibody 1B7.11. Antibodies were dosed at 15 mg/kg once a week, and gemcitabine was dosed at […] once a week. Administration of the antibodies and gemcitabine was performed via injection into the intraperitoneal cavity. Tumor growth was monitored and tumor volumes were measured with electronic calipers at specific time points. Data are expressed as mean±S.E.M.

[3] = tested on: RSPO2-induced β-catenin signaling; assay: TOPflash luciferase assay in HEK-293 cells, Wnt3a plus human RSPO2; assay type: cell-based; conditions: Wnt3a 5 ng/ml, RSPO2 10 ng/ml
Description: (§1) HEK-293 cells were transfected with a 6×TCF-luciferase reporter vector (TOPflash, Millipore, Billerica, Mass.). After 24-48 hrs, the transfected HEK-293 cells were incubated with a combination of Wnt3a (5 ng/ml) and human RSPO2 (10 ng/ml, R&D BioSystems) or human RSPO3 (10 ng/ml, R&D BioSystems) in the presence of anti-RSPO2 antibodies 130M23, 130M24, 130M25, 130M26, 130M27, and 130M28. Cells were incubated with a combination of Wnt3a and RSPO, Wnt3a only or with no addition as controls. The cells were incubated for 16 hours and luciferase activity was measured using Steady-Glo® Luciferase Assay System according to the manufacturer's instructions (Promega, Madison, Wis.).

[4] = tested on: PN7 pancreatic tumor cells; assay: PN7 pancreatic tumor xenograft growth in NOD/SCID mice; assay type: in vivo
Description: Dissociated PN7 pancreatic tumor cells (1×10^5cells) were injected subcutaneously into the flanks of 6-8 week old NOD/SCID mice. Tumors were allowed to grow for 25 days until they reached an average volume of 130 mm^3. The mice were randomized (n=10 per group) and treated with anti-RSPO2 antibody 130M23, anti-FZD antibody 18R5, gemcitabine, a combination of 130M23 and gemcitabine, a combination of 18R5 and gemcitabine, a combination of 130M23 and 18R5, a combination of 130M23, 18R5 and gemcitabine, or control antibody 1B7.11. Anti-RSPO2 antibody 130M23 was dosed at 10 mg/kg once a week, anti-FZD antibody 18R5 was dosed at 20 mg/kg once a week, and gemcitabine was dosed at […] once a week. Administration of the antibodies and gemcitabine was performed via injection into the intraperitoneal cavity. Tumor growth was monitored and tumor volumes were measured with electronic calipers at specific time points. Data are expressed as mean±S.E.M. A parallel set of experiments included mice treated with a FZD8-Fc soluble receptor (10 mg/kg) in combination with gemcitabine and FZD8-Fc in combination with 130M23 and gemcitabine.

[5] = tested on: β-catenin signaling induced by RSPO3; assay: TOPflash luciferase assay in HEK-293 cells, Wnt3a plus human RSPO3; assay type: cell-based; conditions: Wnt3a 5 ng/ml, RSPO3 10 ng/ml
Description: as §1

[6] = molecular target: T1, human RSPO2; assay: FACS binding of 130M23 and humanized 130M23 to HEK293 cells expressing FLAG-RSPO2furin-CD4TM-GFP; conditions: five-fold serial dilutions
Description: HEK293 cells were transiently transfected with an expression vector encoding FLAG-RSPO2furin-CD4TM-GFP. As described in Example 11, FLAG-RSPO2furin-CD4TM-GFP is a chimeric fusion protein enabling cell surface expression of the N-terminal furin-like domains of human RSPO2. FLAG-RSPO2furin-CD4TM-GFP transfected cells were incubated in the presence of anti-RSPO2 antibody 130M23 or humanized anti-RSPO2 antibody […]. Five-fold serial dilutions of each antibody were examined for their ability to bind to the RSPO2 expressing cells. The cells were stained with Phycoerythrin conjugated anti-IgG to reveal bound antibody. The cells were analyzed on a FACSCalibur instrument (BD Biosciences, San Jose, Calif.) and the data was processed using FlowJo software.

[7] = tested on: β-catenin signaling; assay: Luciferase assay in STF-293 cells with LU2 cells, lung tumor cell-conditioned medium and Wnt3a-L cell-conditioned medium; assay type: cell-based, human
Description: Conditioned medium from human lung tumor LU2 cells was prepared as described in Example 3 and soluble LGR5-Fc was produced as described in Example 2.
STF-293 cells were incubated with LU2 cells plus 25% lung tumor cell-conditioned medium plus 25% Wnt3a-L cell-conditioned medium. Antibody 130M23 and soluble LGR5-Fc were added to the cells in 5-fold serially dilutions from 50 μg/ml to 0.0006 μg/ml. An irrelevant monoclonal antibody, similarly diluted, and a control Fc fusion protein (50 ug/ml) were used as negative controls. The cells were incubated for 20 hours and luciferase activity was measured using Steady-Glo® Luciferase Assay System according to the manufacturer's instructions (Promega, Madison, Wis.).

[8] = tested on: PN7 tumors; assay: Serial transplantation of cells from treated PN7 tumors (tumorigenicity); assay type: in vivo, NOD-SCID mice; conditions: 90 cells injected, 40 days growth with no treatment; vs control antibody
Description: The PN7 tumors described above were processed to yield single cell suspensions. Mouse cells were depleted from the cell mixtures using biotinylated anti-H2K^d and anti-CD45 antibodies and streptavidin-conjugated magnetic beads. The remaining human tumor cells were serially transplanted into a new cohort of mice. 90 tumor cells from each treatment group were injected into the flanks of NOD-SCID mice (n=10 mice per group). Tumors were allowed to grow for 40 days with no treatment and tumor volumes were measured with electronic calipers.

[9] = molecular target: T2, binding of RSPO2 to LGR5 (Homo sapiens, UniProt Q6UXX9); assay: FACS: blocking of soluble RSPO2-Fc binding to LGR5 on HEK-293 cells; conditions: RSPO2-Fc 10 μg/ml
T2 construct: full-length human RSPO1, RSPO2, RSPO3 and RSPO4 were ligated in-frame to a human Fc region; made in house; host or cells: RSPO2-Fc: insect cells (baculovirus); LGR5 construct: transiently transfected HEK-293
T2 sequence (Q6UXX9 22-243 L186P): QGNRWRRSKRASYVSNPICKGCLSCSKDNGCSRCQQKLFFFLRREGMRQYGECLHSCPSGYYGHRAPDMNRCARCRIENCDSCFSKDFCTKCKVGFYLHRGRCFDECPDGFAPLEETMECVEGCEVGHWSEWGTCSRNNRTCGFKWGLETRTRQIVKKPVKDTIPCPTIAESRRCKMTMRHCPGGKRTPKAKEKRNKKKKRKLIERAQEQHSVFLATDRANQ
Description: HEK-293 cells were transiently transfected with the FLAG-LGR5-CD4TM-GFP construct (previously described in Example 2). After 48 hours, transfected cells were suspended in ice cold PBS containing 2% FBS and heparin and incubated on ice in the presence of RSPO2-Fc protein (10 μg/ml) and antibodies 130M23, 130M24, 130M25, 130M26, 130M27, and 130M28. A second incubation with 100 μl PE-conjugated anti-human Fc secondary antibody was performed to detect cells bound by the RSPO2-Fc fusion protein. The cells were analyzed on a FACSCalibur instrument (BD Biosciences, San Jose, Calif.) and the data was processed using FlowJo software.

T1 sequence (Q6UXX9 31-146): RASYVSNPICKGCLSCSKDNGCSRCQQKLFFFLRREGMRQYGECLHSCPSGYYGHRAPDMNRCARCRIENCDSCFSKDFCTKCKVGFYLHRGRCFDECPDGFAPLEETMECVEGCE

binding to RSPO2 (FACS) [1]: bound
binding to human RSPO2 (FACS) [6]: bind
blocking of binding of RSPO2 to LGR5 [9]: blocked
B1: 130M23: anti-RSPO2 monoclonal antibody, hybridoma ATCC PTA-12021; variable regions SEQ ID NO:27 and SEQ ID NO:28 (antibody, V domains shown)
VH: EVKLVESGGGLVKPGGSLKFSCAASGFSFSSYAMSWVRQTPEKRLEWVASISSGGSTYYPDSVKGRFTISRDNVRNILYLQMSSLRSEDTAMYFCARGGDPGVYNGDYEDAMDYWGQGTSVTVSS
VL: DIVMTQSHKFMSTSVGDRVSITCKASQDVSSAVAWYQQKPGQSPKLLIYWASTRHTGVPDRFTNSGSGTDYTLTISSVQAEDLALYYCQQHYSTPWTFGGGTKLEIK
modifications: 130M23 Heavy chain variable region; 130M23 Light chain variable region
effect on tumor growth as single agents [2]: only a minimal effect
effect on RSPO2-induced β-catenin signaling [3]: completely blocked
proliferation (anti-Ki67 antibody IHC) ([4]; PN7 tumors of treated mice): significant decrease in proliferation
morphology of PN7 tumors (IHC) ([4]; treated vs untreated mice): induced morphological changes
reduction in tumor growth ([4]; vs control antibody, 130M23 10 mg/kg, 18R5 20 mg/kg, gemcitabine once a week, intraperitoneal): approximately 55%
blocking of β-catenin signaling induced by RSPO3 [5]: did not block
induction of luciferase activity by lung tumor cell-conditioned medium and Wnt3a-conditioned medium ([7]; increasing concentrations, 50 to 0.0006 μg/ml): reduced
potency relative to LGR5-Fc ([7]; more potent than LGR5-Fc): greater than 100 fold
tumorigenicity of cells isolated from treated mice [8]: greatly decreased tumorigenicity
